From paper PMC4078008, “Exploring metabolic engineering design principles for the photosynthetic production of lactic acid by Synechocystis sp. PCC6803” (Biotechnology for Biofuels, 2014)

Substrate: CC(=O)C(=O)O
Assay: purified protein
Format: biochemical, Bacillus subtilis
Conditions: 50 mM phosphate pH 6.5, 30 °C, no FBP, co-substrate NADH (general LDH assay)

Protein | Km [mM]
L-LDH of B. subtilis (BsLDH) (Bacillus subtilis subsp. subtilis str. 168) (protein, codon-optimized gene, pET28b+ NdeI/HindIII, N-terminal His-tag (removal not mentioned), E. coli BL21(DE3), HisTrap-purified) MNKHVNKVALIGAGFVGSSYAFALINQGITDELVVIDVNKEKAMGDVMDLNHGKAFAPQPVKTSYGTYEDCKDADIVCICAGANQKPGETRLELVEKNLKIFKGIVSEVMASGFDGIFLVATNPVDILTYATWKFSGLPKERVIGSGTTLDSARFRFMLSEYFGAAPQNVHAHIIGEHGDTELPVWSHANVGGVPVSELVEKNDAYKQEELDQIVDDVKNAAYHIIEKKGATYYGVAMSLARITKAILHNENSILTVSTYLDGQYGADDVYIGVPAVVNRGGIAGITELNLNEKEKEQFLHSAGVLKNILKPHFAEQKVN | 4.34 ± 1.24
L-LDH of B. subtilis (BsLDH) (Bacillus subtilis subsp. subtilis str. 168; V38R) (protein, codon-optimized gene, pET28b+ NdeI/HindIII, N-terminal His-tag (removal not mentioned), E. coli BL21(DE3), HisTrap-purified) MNKHVNKVALIGAGFVGSSYAFALINQGITDELVVIDRNKEKAMGDVMDLNHGKAFAPQPVKTSYGTYEDCKDADIVCICAGANQKPGETRLELVEKNLKIFKGIVSEVMASGFDGIFLVATNPVDILTYATWKFSGLPKERVIGSGTTLDSARFRFMLSEYFGAAPQNVHAHIIGEHGDTELPVWSHANVGGVPVSELVEKNDAYKQEELDQIVDDVKNAAYHIIEKKGATYYGVAMSLARITKAILHNENSILTVSTYLDGQYGADDVYIGVPAVVNRGGIAGITELNLNEKEKEQFLHSAGVLKNILKPHFAEQKVN | 4.00 ± 0.50
